Target: T1, Hsmar1-Prime transposase (Hsmar1-P) (Homo sapiens, UniProt Q53H47 SEQ:1-343)
T1 chain: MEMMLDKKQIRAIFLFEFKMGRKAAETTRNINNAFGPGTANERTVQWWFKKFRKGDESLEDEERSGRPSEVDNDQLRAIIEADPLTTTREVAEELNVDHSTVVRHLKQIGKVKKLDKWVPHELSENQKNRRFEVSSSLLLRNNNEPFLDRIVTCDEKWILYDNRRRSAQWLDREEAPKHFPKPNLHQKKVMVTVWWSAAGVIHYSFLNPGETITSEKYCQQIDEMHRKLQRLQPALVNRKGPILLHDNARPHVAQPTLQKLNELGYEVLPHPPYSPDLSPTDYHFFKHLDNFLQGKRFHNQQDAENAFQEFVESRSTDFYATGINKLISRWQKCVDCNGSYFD
Assay: cell_activity; HeLa cells, donor pHsmar1/neo plus helper; excision with 3 bp footprint, integration at TA
Conditions: tags: expressed from pFV-4a helper plasmid; chain copies: 2; 30 bp terminal inverted repeats in plasmid donor

B1: Hsmar1 transposon inverted repeats (left IR / right IR, flanking SV40-neo in pHsmar1/neo) (dsDNA)
DNA 1: TTAGGTTGGTGCAAAAGTAATTGCGGTTTT
DNA 2: AAAACCGCAATTACTTTTGCACCAACCTAA
- activity: ~20 fold increase in G418-resistant colonies

From US20080279838, “Reconstructed Human Mariner Transposon Capable of Stable Gene Transfer Into Chromosomes in Vertebrates” (published 2008)
